The Kd is the equilibrium constant for the complex coming apart.

Where a chain is given by its changes, count along the chain named. Like-named read-outs stand apart in the source and are kept apart here.

In assay [1] the target is T1, VSIG3 His-fusion (human, UniProt Q5DX21 23-241, biotinylated (in the co-immunoprecipitation of FIG. 2)).
T1 chain: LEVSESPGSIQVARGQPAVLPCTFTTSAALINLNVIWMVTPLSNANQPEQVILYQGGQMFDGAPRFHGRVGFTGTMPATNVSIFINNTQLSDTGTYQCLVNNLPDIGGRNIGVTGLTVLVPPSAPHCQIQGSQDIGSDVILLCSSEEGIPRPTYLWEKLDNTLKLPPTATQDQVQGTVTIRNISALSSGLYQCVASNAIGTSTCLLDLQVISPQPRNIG
As to the kind of experiment: SPR (Biacore), antibody captured on protein A/G/L, single-cycle kinetics. On the technique in general: Surface plasmon resonance follows binding to a sensor surface in real time, without labels.

The target of assay [2] is T2, Recombinant human VSIG3 Fc Chimera.
T2 chain: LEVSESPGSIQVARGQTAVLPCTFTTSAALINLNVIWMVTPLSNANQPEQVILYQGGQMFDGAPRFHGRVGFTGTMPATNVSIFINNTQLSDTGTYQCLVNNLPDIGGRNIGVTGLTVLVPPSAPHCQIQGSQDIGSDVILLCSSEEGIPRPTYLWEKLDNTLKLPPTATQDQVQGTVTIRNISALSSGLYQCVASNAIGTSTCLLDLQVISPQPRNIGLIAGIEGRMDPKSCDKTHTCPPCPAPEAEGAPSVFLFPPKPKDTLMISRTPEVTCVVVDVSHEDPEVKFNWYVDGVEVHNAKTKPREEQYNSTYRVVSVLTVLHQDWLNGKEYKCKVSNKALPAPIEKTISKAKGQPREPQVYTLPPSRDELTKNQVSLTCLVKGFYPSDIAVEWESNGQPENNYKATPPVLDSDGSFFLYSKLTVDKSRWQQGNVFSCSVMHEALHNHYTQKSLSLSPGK
As to the kind of experiment: SPR (Biacore, single-cycle kinetics).

The target is the same in assay [3]. As to the kind of experiment: SPR (Biacore, single-cycle kinetics).
Assay [4] deals with T1, VSIG3 His-fusion. The assay can be described thus: SPR (Biacore), antibody captured on protein A/G/L, single-cycle kinetics.
The target in assay [5] is T2, Recombinant human VSIG3 Fc Chimera. As to the kind of experiment: SPR (Biacore, single-cycle kinetics).
The target is the same in assay [6]. The assay can be described thus: SPR (Biacore, single-cycle kinetics).
For assay [7] the target is unchanged. As to the kind of experiment: SPR (Biacore), VSIG3-Fc immobilized, antibody as analyte, single-cycle kinetics.

B1: mouse anti-human VSIG3 monoclonal antibody from clone #774226 (antibody, V domains shown)
VH: DVQLQESGPGLVKPSQSLSLICTVTGYSITSDYAWNWIRQFPGNKLEWMGYISYSGYTTYNPSLKSRISITRDTSKNQFFLQLNSVTTEDTATYYCAISGGSWFAYWGQGTLVTVSA
VL: DIQMTQSPASLSASVGETVNITCRTSENINSYLAWYQQKQGKSPQLLVYNAKTLAEGVPSRFSGSGSGTQFSLKINSLQPEDFGSYYCQHHYGTPPTFGGGTKLEIKR
In the case of B1, the Kd in the assay with VSIG3 His-fusion [1] was 42 nM; in assay [2], 65 nM.

B2: mouse anti-human VSIG3 monoclonal antibody from clone #774221 (antibody, V domains shown)
VH: B1 VH with I21T, T58A, T59I, Q78H, I98R
VL: B1 VL with N20T, T25A
B2: the Kd worked out at 25 nM with VSIG3 His-fusion [1] and 21 nM in assay [2].

B3: mouse anti-human VSIG3 monoclonal antibody from clone #774213 (antibody, V domains shown)
VH: DVQLVESGGGLVQPGGSRKLSCAASGFTFSSFGMHWVRQAPEKGLEWVAYISSGSTTIYYADTVKGRFTISRDNPKNTLFLQMTSLRSEDTAMYYCTRGSYYRYDLYYAMDYWGQGTSVTVSS
VL: DIQMTQSPSSLSASLGGKVTITCKASQDIHKYVAWYQHKPGKGPRLLIHYTSTLQPGIPSRFSGSGSGSDYSFSISNLEPADIASYYCLQYDNLLFTFGGGTKLEIKR
Turning to B3, the figures for the Kd (in assay [3]; with VSIG3 His-fusion [4]) were 9.2 nM and 19 nM, respectively.

B4: mouse anti-human VSIG3 monoclonal antibody from clone #973401 (antibody, V domains shown)
VH: QVQLQQSAAELARPGASVKMSCKASGYTFATYTIHWVKQRPGQGLEWIGYINPSSGYTEYNQKFKDKTTLTADKSSSTAYMQLSSLTSEDSAVYYCARREVYGSGSMDYWGQGTSVTVSS
VL: QIVLTQSPALMSASPGEKVTMTCSASSSVSFMYWYHQKPRSSPKPWIYLTSNLASGVPARFSGSGSGTSYSLTISSMEAEDAATYYCQQWSSNPLTFGAGTKLELKR
B4: the Kd in assay [5] amounted to 2.2 nM.

B5: mouse anti-human VSIG3 monoclonal antibody from clone #973422 (antibody, V domains shown)
VH: EVKLVESGGGLVQPGGSLKLSCAASGFTFSSYSMSWVRQTPEKRLEWVAYISNGGGSTYYPDTVKGRFTISRDNAKNTLYLQMSSLKSEDTAMYYCARHGDGYYPWFAYWGQGTLVTVSA
VL: QIVLSQSPAILSASPGEKVTMTCRASSSVSYIHWYQQKPGSSPKPWIYATSNLASGVPARFSGSGSGTSYSLTISRVEAEDAATYYCQQWSSNPFTFASGTKLEIKR
On to B5, for which the Kd in assay [6] is 1.5 nM.

B6: mouse anti-human VSIG3 monoclonal antibody from clone #973428 (antibody, V domains shown)
VH: EVQLVESGGDLVKPGGSLKLSCAASGFTFNSYGMSWVRQTPDKRLEWVAIISSGGSYTYYPDSVKGRFTISRDNAKNTLYLQMSSLKSEDTAMYYCARLSYYYGSSPYAMDYWGQGTSVTISS
VL: DIVLTQSPASLAVSLGQRATISCRASKSVSTSGYSYMHWYQQKPGQSPKLLIYLASNLESGVPARCSGSGSGTDFTLNIHPVEEEDAATYYCQHSRELPYTFGGGTKLEIKR
In the case of B6, the Kd in assay [7] is 2.2 nM.

Values taken from patent US20190194322A1 (published 2019).
